# Results published in PMC6947844 (Antibody therapeutics, 2019).
# B1: monoclonal antibody 40H3 (antibody, V domains shown)
# VH: QVQLKQSGPGLVQPSQSLSITCTVSGFSLTNYGIHWLRQSPGKGLEWLGMMWRGGGTDYNAAFISRLTITKDTSKSQVFFRMNNLQTNDTAIYYCARKGVGMGLGYWGQGTSVTVSS
# VL: DIQMTQSPASQSASLGESVTITCLASQTIGTWVAWYQQKPGRSPQLLIYGATNLADGVPSRFSGSGSGTKFSFKISSLQAEDFVSYYCQQLYSNPYTFGGGTKLEIK
# Target: Human EGFRvIII extracellular domain (ECD) C-terminal His-tagged protein (Homo sapiens, deletion of amino acids 6 to 273)
# Test: BLI
binder,measurement,value
B1,Kd,~0.27 nM
